Data on 1 protein can be found in paper PMC6994465, “Structural basis of proton-coupled potassium transport in the KUP family” (Nature Communications, 2020).

The term stoichiometry N denotes a count of units in the complex or per binding partner.

This data set concerns the molecule itself. The data set is described as follows: cryo-EM structure; KimA in SMA lipid particles (SMALPs) at 1.1 mg/mL, 50 mM Tris pH 8, 100 mM KCl, with 50 uM cyclic di-AMP; C2 symmetry; 3.7 A.

B1: KimA from Bacillus subtilis (natural protein)
chain: MYHSIKRFLIGKPLKSQAAGEQKLTKLKALAMLSSDALSSVAYGTEQILIILATISAAAFWYSIPIAVGVLILLLALILSYRQIIYAYPQGGGAYIVSKENLGEKPGLIAGGSLLVDYILTVAVSISAGTDAITSAFPALHDYHVPIAIFLVLVIMILNLRGLSESASILAYPVYLFVVALLVLIAVGLFKLMTGQIDQPAHHTSLGTPVAGITLFLLLKAFSSGCSALTGVEAISNAIPAFKNPPARNAARTLAMMGILLAILFSGITVLAYGYGTAPKPDETVVSQIASETFGRNVFYYVIQGVTSLILVLAANTGFSAFPQLAFNLARDQYMPRMFTVRGDRLGFSNGIIFLGFASIVLIILFGGQTEHLIPLYAVGVFIPFTLSQTGMCMKWIKQKPKGWIGKMLINSCGALISFMVLSILFVTKFNVVWPVLIFMPIVVLLFFAIKNHYTAVGEQLRIVDKEPEEIKGTVVIVPVAGVTTVVQKSIHYAKSLSDQVIAVHVSFDREQEKKFEKRWEELNNGVRLVTLHSSYRSLVHPFDKFLETVEAKAKKEQFSVMVLFPQFITKKRWHTILHNQSAFLLRVRLFWKKDIMVATLPYHFKK
notes: KimA, potassium importer of the KUP family, Bacillus subtilis; gene amplified from genomic DNA; Homodimer in the cryo-EM structure; The model holds 572 of 607 residues (it lacks the first 26 residues and residues 480-481, 534-538 and 607); Primers are in the Supplementary Methods; also called wild-type KimA; potassium importer KimA; source: E. coli LB2003, purified (membranes solubilised with SMA …)
As for B1, the “stoichiometry N” value was determined as 2.
